Results published in patent US20060257866, “Methods for identifying small molecules that modulate premature translation termination and nonsense mediated mrna decay” (published 2006).

Key:
[1] = molecular target: T1, Tat47-58 peptide (HIV-1 Tat) (HIV-1); assay: EMSA; TK buffer: 50 mM Tris-HCl pH 7.4, 20 mM KCl, 0.5 mM MgCl2, 0.1% Triton X-100; peptide 0.1-1.6 uM; annealed from 90 C to 24 C; gel at 4 C; details: protein: synthetic; label: 5'-fluorescein, 3'-32P cytidine bisphosphate; hairpin
T1 chain: YGRKKRRQRRRP

[2] = molecular target: T1, Tat47-58 peptide (HIV-1 Tat); assay: EMSA; capillary electrophoresis mobility shift; TK buffer 0.5 mM MgCl2; peptide 0.1-1.6 mM as printed; details: protein: synthetic; label: 5'-fluorescein; hairpin

B1: HIV-1 TAR RNA oligonucleotide (ssRNA)
RNA: GGCAGAUCUGAGCCUGGGAGCUCUCUGCC
binding result [1]: binds

B2: HIV-1 TAR RNA oligonucleotide (fluorescein only) (ssRNA)
RNA: GGCAGAUCUGAGCCUGGGAGCUCUCUGCC
binding result [2]: binds
